Assay results published in the Immune Epitope Database (IEDB).

What was measured:
HLA-A*11:01 [1] = assay: IEDB peptide-MHC binding, purified MHC/direct/fluorescence; filed as Kd, often an IC50 or EC50 that approximates it; ≥ and ≤ were set here for values at or beyond the usual limits of such assays; settings: source organism: Giardia intestinalis
HLA-A*26:01 [2] = assay: as above; settings: source organism: Giardia intestinalis
HLA-A*69:01 = assay: as above; settings: source organism: Giardia intestinalis
HLA-B*27:05 = assay: as above; settings: source organism: Giardia intestinalis
HLA-B*15:01 [3] = assay: as above; settings: source organism: Giardia intestinalis
HLA-B*44:02 = assay: as above; settings: source organism: Giardia intestinalis
HLA-A*03:01 [4] = assay: as above; settings: source organism: Giardia intestinalis
HLA-B*40:01 = assay: as above; settings: source organism: Giardia intestinalis
HLA-A*02:01 [5] = assay: as above; settings: source organism: Giardia intestinalis
HLA-B*08:01 [6] = assay: as above; settings: source organism: Giardia intestinalis
HLA-A*01:01 [7] = assay: as above; settings: source organism: Giardia intestinalis
HLA-B*58:01 = assay: as above; settings: source organism: Giardia intestinalis
HLA-A*24:03 = assay: as above
HLA-A*31:01 [8] = assay: as above; settings: source organism: Giardia intestinalis
HLA-B*07:02 = assay: as above; settings: source organism: Giardia lamblia ATCC 50803
HLA-B*48:01 = assay: as above; settings: source organism: Mycobacterium tuberculosis C
HLA-A*24:02 = assay: IEDB peptide-MHC binding, purified MHC/competitive/fluorescence; ≥ and ≤ were set here for values at or beyond the usual limits of such assays
HLA-A*33:01 = assay: IEDB peptide-MHC binding, purified MHC/competitive/radioactivity; filed as Kd, often an IC50 or EC50 that approximates it; ≥ and ≤ were set here for values at or beyond the usual limits of such assays; settings: source organism: Vaccinia virus WR
HLA-A*11:01 [9] = assay: as above; settings: source organism: Vaccinia virus WR
HLA-B*15:01 [10] = assay: as above
HLA-A*03:01 [11] = assay: as above; settings: source organism: Vaccinia virus WR
HLA-A*68:01 = assay: as above; settings: source organism: Vaccinia virus WR
HLA-A*31:01 [12] = assay: as above; settings: source organism: Vaccinia virus WR
HLA-A*02:01 [13] = assay: IEDB peptide-MHC binding, purified MHC/competitive/fluorescence; ≥ and ≤ were set here for values at or beyond the usual limits of such assays; settings: source organism: Sudan ebolavirus
HLA-A*02:03 = assay: IEDB peptide-MHC binding, purified MHC/competitive/radioactivity; filed as Kd, often an IC50 or EC50 that approximates it; ≥ and ≤ were set here for values at or beyond the usual limits of such assays; settings: source organism: Vaccinia virus WR
HLA-A*02:06 = assay: as above; settings: source organism: Vaccinia virus WR
HLA-A*02:02 = assay: as above; settings: source organism: Vaccinia virus WR
HLA-A*26:01 [14] = assay: as above
HLA-A*23:01 = assay: as above; settings: source organism: Dengue virus 3 Martinique/1243/1999
HLA-B*08:01 [15] = assay: as above; settings: source organism: Vaccinia virus WR
HLA-A*01:01 [16] = assay: as above; settings: source organism: Dengue virus 4 Philippines/H241/1956
HLA-A*30:02 = assay: as above; settings: source organism: Dengue virus 4 Philippines/H241/1956
HLA-B*46:01 = assay: IEDB peptide-MHC binding, purified MHC/competitive/fluorescence; filed as Kd, often an IC50 or EC50 that approximates it; ≥ and ≤ were set here for values at or beyond the usual limits of such assays; settings: source organism: Yellow fever virus
[17] = source organism: Vaccinia virus WR
[18] = source organism: West Nile virus
[19] = source organism: Zaire ebolavirus
[20] = source organism: Dengue virus 3 Martinique/1243/1999
[21] = source organism: Dengue virus 4 Philippines/H241/1956

In the case of GPRRAAWRI, the Kd (HLA-A*11:01 [1]) is reported as at least 20000 nM, the Kd (HLA-A*26:01 [2]) is reported as at least 20000 nM and the Kd (HLA-A*69:01) is reported as at least 20000 nM. The Kd (HLA-B*27:05) was at least 20000 nM, the Kd (HLA-B*15:01 [3]) was at least 20000 nM and the Kd (HLA-B*44:02) was at least 20000 nM. The Kd (HLA-A*03:01 [4]) was at least 20000 nM, the Kd (HLA-B*40:01) was at least 20000 nM and the Kd (HLA-A*02:01 [5]) was at least 20000 nM. It also gave a Kd (HLA-B*08:01 [6]) of at least 20000 nM, a Kd (HLA-A*01:01 [7]) of at least 20000 nM and a Kd (HLA-B*58:01) of at least 20000 nM. The Kd (HLA-A*24:03; source organism: Giardia lamblia ATCC 50803) was at least 20000 nM, the Kd (HLA-A*31:01 [8]) was at least 20000 nM and the Kd (HLA-B*07:02) was 61.8 nM.
HQDNLDTVI gave a Kd (HLA-B*48:01) of 9150 nM.
KRSVMLIGI showed an IC50 (HLA-A*24:02; [17]) of 9380 nM.
In the case of KYVDYMSSL, the IC50 (HLA-A*24:02; [18]) is reported as 507 nM.
LLHCVTESY gave a Kd (HLA-A*33:01) of at least 26300 nM, a Kd (HLA-A*11:01 [9]) of 8230 nM and a Kd (HLA-B*15:01 [10]; [17]) of 1.04 nM. The Kd (HLA-A*03:01 [11]) was 3930 nM, the Kd (HLA-A*68:01) was 12400 nM and the Kd (HLA-A*31:01 [12]) was 12500 nM.
In the case of LMHNQNALV, the IC50 (HLA-A*24:02; source organism: Sudan ebolavirus) is reported as at least 87000 nM and the IC50 (HLA-A*02:01 [13]) is reported as 1160 nM.
In the case of LSRVFFCVY, the Kd (HLA-B*15:01 [10]; [17]) is reported as 2.9 nM.
Work on MIIMDEAHF yielded a Kd (HLA-B*15:01 [10]; source organism: Dengue virus 1 Brazil/97-11/1997) of 18.5 nM.
MTATLEDDR gave an IC50 (HLA-A*24:02; source organism: Variola virus) of 14600 nM.
In the case of MYRHILRSQ, the IC50 (HLA-A*24:02; [19]) is reported as 56000 nM.
Sequence NTNKHMLEF has a Kd (HLA-B*15:01 [10]; [17]) of 11.8 nM.
QLFKYVPSA showed a Kd (HLA-A*02:03) of 7.81 nM, a Kd (HLA-A*02:06) of 349 nM and a Kd (HLA-A*02:02) of 12.3 nM. It also gave a Kd (HLA-B*15:01 [10]; [17]) of 377 nM.
Sequence QYQQLREAA has an IC50 (HLA-A*24:02; [19]) of at least 73900 nM.
RTNAAMGAVF was tested, and the Kd (HLA-A*26:01 [14]; [20]) was at least 57300 nM, the Kd (HLA-B*15:01 [10]; [20]) was 19.4 nM and the Kd (HLA-A*23:01) was 2050 nM.
With RWLGGILPW the IC50 (HLA-A*24:02; [17]) was 11.1 nM.
For SGSTSPRML, the IC50 (HLA-A*24:02; [19]) was at least 188000 nM.
Work on SMISRHCCI yielded a Kd (HLA-B*15:01 [10]; [17]) of 80.7 nM and a Kd (HLA-B*08:01 [15]) of 1.25 nM.
SNSVAQARF gave an IC50 (HLA-A*24:02; [19]) of at least 83600 nM.
STANIFRGSY showed a Kd (HLA-A*26:01 [14]; [21]) of 23.6 nM, a Kd (HLA-B*15:01 [10]; [21]) of 4.87 nM and a Kd (HLA-A*01:01 [16]) of 1140 nM. The Kd (HLA-A*30:02) was 2.08 nM.
Sequence VSVNNVCHM has a Kd (HLA-B*15:01 [10]; source organism: Vaccinia virus Copenhagen) of 13.9 nM.
Work on VYRIMTRGL yielded a Kd (HLA-A*24:03; [18]) of 580 nM.
With WFYDNDNPY the Kd (HLA-B*46:01) was 1170 nM.
